The values below come from patent US20220332804A1 (CSL INNOVATION, published 2022).

Holding throughout (assay): SPR, KD relative to WT C2;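 also: biacore SPR at 37 °C, anti-C2 mAbs captured via immobilised goat anti-human IgG, C2 alanine or serine surface mutants as analytes, 1:1 model fitted, double-referenced sensograms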
For orientation: SPR reads the build-up and loss of mass on a sensor chip optically.

For one assay, the target named is T1, human C2 T647A (human, UniProt P06681 21-752).
T1 sequence: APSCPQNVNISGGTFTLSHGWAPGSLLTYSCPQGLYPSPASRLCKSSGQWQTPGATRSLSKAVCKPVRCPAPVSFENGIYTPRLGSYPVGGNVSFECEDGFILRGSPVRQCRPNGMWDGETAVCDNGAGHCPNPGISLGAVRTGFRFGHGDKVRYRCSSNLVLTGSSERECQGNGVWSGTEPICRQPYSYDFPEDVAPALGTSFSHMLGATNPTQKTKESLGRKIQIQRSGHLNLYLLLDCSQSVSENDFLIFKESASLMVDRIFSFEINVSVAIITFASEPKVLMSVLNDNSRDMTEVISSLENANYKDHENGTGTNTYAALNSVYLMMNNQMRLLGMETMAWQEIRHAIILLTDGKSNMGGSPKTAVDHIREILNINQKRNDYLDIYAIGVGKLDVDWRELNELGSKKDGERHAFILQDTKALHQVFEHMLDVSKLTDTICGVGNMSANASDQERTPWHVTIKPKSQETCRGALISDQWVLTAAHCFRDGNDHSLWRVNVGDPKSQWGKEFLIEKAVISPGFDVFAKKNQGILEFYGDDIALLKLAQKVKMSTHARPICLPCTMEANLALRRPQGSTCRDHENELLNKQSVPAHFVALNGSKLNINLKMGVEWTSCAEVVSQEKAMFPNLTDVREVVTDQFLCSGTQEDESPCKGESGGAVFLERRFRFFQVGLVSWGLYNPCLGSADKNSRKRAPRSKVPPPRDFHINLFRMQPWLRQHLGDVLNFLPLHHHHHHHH

A further assay concerns the target T2, human C2 D417A (human, UniProt P06681 21-752).
T2 sequence: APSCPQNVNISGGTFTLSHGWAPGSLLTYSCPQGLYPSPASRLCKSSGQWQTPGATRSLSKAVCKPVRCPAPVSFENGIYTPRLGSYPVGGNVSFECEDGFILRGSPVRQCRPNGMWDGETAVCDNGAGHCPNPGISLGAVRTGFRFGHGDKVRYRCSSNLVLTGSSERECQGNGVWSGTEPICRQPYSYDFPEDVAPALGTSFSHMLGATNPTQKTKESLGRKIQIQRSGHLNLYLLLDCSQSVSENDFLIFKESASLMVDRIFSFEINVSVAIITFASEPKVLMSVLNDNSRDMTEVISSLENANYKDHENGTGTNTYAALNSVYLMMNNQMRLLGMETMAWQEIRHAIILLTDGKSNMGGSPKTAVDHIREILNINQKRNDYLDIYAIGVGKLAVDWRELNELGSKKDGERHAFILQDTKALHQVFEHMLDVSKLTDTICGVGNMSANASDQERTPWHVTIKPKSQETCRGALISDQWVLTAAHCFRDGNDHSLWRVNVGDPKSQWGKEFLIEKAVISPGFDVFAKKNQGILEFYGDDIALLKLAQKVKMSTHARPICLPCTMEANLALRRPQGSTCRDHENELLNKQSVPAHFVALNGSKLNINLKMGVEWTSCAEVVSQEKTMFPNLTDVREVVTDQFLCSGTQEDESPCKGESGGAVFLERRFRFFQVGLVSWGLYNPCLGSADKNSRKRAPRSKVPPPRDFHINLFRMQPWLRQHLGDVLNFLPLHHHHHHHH

The target in a further assay is T3, human C2 M452A (human, UniProt P06681 21-752).
T3 sequence: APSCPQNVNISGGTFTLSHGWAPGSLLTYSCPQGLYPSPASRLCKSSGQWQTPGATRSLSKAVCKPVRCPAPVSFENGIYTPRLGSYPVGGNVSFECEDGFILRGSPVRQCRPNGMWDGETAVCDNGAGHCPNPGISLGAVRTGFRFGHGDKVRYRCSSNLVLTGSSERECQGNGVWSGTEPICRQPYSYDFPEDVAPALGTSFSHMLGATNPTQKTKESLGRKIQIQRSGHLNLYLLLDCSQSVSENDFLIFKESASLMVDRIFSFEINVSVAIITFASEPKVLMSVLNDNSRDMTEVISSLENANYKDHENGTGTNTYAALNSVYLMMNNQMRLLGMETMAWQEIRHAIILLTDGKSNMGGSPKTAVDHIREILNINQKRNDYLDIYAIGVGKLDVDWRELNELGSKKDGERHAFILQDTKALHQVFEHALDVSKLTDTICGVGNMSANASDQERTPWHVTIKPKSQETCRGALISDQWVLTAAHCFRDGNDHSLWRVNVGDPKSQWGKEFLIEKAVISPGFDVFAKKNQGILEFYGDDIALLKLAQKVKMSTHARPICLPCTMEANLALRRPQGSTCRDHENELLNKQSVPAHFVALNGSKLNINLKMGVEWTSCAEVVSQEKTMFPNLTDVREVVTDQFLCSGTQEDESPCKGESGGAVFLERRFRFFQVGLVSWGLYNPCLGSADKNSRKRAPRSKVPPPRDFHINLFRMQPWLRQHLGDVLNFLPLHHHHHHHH

The next assay deals with T4, human C2 N471A (human, UniProt P06681 21-752).
T4 sequence: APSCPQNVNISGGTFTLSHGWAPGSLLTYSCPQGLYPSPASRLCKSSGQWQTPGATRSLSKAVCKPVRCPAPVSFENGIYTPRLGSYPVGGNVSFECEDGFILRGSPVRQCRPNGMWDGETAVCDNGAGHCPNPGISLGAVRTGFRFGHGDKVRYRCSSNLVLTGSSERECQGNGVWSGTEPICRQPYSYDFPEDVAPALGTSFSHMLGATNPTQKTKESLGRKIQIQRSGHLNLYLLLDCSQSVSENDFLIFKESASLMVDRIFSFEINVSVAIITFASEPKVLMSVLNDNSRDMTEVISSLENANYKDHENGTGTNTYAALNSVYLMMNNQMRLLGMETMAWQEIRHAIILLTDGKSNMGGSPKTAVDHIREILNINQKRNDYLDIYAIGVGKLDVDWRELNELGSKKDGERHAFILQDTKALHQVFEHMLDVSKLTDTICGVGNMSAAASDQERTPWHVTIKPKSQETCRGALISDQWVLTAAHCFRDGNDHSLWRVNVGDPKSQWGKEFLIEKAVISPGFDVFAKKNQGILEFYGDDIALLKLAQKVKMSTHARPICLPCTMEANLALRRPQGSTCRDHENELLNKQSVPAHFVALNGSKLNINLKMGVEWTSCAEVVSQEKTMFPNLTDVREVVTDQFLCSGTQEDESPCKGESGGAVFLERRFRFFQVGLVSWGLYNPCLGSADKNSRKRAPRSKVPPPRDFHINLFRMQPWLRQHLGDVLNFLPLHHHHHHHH

B1: RF16-226 (antibody, human IgG4 S228P, lambda)
heavy: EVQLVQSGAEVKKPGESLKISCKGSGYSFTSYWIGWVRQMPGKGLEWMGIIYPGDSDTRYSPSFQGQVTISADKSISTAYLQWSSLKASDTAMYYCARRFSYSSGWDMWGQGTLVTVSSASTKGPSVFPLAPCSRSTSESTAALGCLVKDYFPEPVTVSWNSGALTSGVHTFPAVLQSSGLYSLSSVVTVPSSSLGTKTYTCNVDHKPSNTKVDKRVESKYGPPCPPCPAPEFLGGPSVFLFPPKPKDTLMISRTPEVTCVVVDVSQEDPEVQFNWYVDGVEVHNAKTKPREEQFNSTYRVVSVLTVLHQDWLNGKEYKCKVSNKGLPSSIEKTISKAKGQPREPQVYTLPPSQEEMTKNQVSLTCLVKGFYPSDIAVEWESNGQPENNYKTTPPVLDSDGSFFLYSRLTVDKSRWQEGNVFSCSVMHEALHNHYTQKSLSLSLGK
light: SYELTQPPSVSVSPGQTARITCSGDALTSKYVAWYQQKSGLAPLLVIYEDTRRPSGIPAKFSGSSSGSVATLTISGAHGDDEADYYCYSTDASGHQRVFGGGTKLTVLSQPKAAPSVTLFPPSSEELQANKATLVCLISDFYPGAVTVAWKADGSPVKAGVETTKPSKQSNNKYAASSYLSLTPEQWKSHRSYSCQVTHEGSTVEKTVAPTECS
notes: pH-dependent anti-C2 antibody from a phage display library; also called WT
As for B1, the Fold diff in the assay with human C2 T647A stood at 15 fold; with human C2 D417A, 2 fold; with human C2 M452A, 0 fold; with human C2 N471A, 1 fold.
